Data on two molecules can be found in patent publication US20170183415A1 (published 2017).

Assay [1] concerns the target T1, immobilized CD123 (UniProt P26951 19-305).
T1 chain: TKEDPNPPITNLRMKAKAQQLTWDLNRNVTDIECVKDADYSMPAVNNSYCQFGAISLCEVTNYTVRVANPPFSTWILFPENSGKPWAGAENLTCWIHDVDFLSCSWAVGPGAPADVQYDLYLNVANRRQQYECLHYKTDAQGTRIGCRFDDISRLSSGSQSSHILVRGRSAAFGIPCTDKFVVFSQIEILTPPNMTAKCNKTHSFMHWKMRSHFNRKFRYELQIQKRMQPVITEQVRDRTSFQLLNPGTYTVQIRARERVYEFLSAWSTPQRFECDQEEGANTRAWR
Nature of the assay: ELISA; FIG. 30A.

Assay [2] has as its target T1, immobilized CD123. Nature of the assay: ELISA; FIG. 30B. Background: In an ELISA, binding on a coated surface is turned into a signal by an enzyme label.
In the next assay the target is CD123_CA. Nature of the assay: ELISA; FIG. 30A.
The target in another assay is CD123_DA. Description: ELISA; FIG. 30A.
In another assay the target is CD123_AC. Description: ELISA; FIG. 30A.
A further assay deals with CD123_AD. Description: ELISA; FIG. 30A.
In the next assay the target is CD123_BD. Nature of the assay: ELISA; FIG. 30A.
A further assay deals with CD123_BC. Nature of the assay: ELISA; FIG. 30B.

B1: parent mouse scFv (anti-CD123, clone 32716) (scFv)
scFv: DIVLTQSPASLAVSLGQRATISCRASESVDNYGNTFMHWYQQKPGQPPKLLIYRASNLESGIPARFSGSGSRTDFTLTINPVEADDVATYYCQQSNEDPPTFGAGTKLELKGGGGSGGGGSSGGGSQIQLVQSGPELKKPGETVKISCKASGYIFTNYGMNWVKQAPGKSFKWMGWINTYTGESTYSADFKGRFAFSLETSASTAYLHINDLKNEDTATYFCARSGGYDPMDYWGQGTSVTVSS
For B1, the Kd with immobilized CD123 [1] worked out at 2.56 nM; in the assay with immobilized CD123 [2], 1.04 nM.

B2: CD123 (receptor)
chain: TKEDPNPPITNLRMKAKAQQLTWDLNRNVTDIECVKDADYSMPAVNNSYCQFGAISLCEVTNYTVRVANPPFSTWILFPENSGKPWAGAENLTCWIHDVDFLSCSWAVGPGAPADVQYDLYLNVANRRQQYECLHYKTDAQGTRIGCRFDDISRLSSGSQSSHILVRGRSAAFGIPCTDKFVVFSQIEILTPPNMTAKCNKTHSFMHWKMRSHFNRKFRYELQIQKRMQPVITEQVRDRTSFQLLNPGTYTVQIRARERVYEFLSAWSTPQRFECDQEEGANTRAWR
Take B2: the Kd turned out to be 10.2 nM with CD123_CA; 2.8 nM with CD123_DA; 1.83 nM with CD123_AC; 1.77 nM in the assay with CD123_AD; 1.12 nM with CD123_BD; 3.25 nM with CD123_BC.

In general, Kd refers to the concentration at which binding is half-saturated. A lower Kd goes with higher affinity.
